According to patent US20060226082A1, “Methods for substrate and modulator screening using enzyme-reactor chromatography/tandem mass spectrometry” (McMaster University, priority 2005, published 2006):

Substrate: Nc1ncnc2c1ncn2[C@@H]1O[C@H](CO)[C@@H](O)[C@H]1O
Assay: Absorbance-based assay of ADA in solution
Type: biochemical, bovine
Settings: other: ADA in solution, absorbance assay (FIG. 7)
Method: FIG. 7 is a graph showing the assessment of Km values for ADA in solution using an absorbance-based assay.
The KI value was determined by extrapolation of IC50 values to the point of zero substrate concentration. The method is based on the derivation described by Cheng and Prusoff,^26 as shown below. Km values were obtained using immobilized enzyme reactor columns by plotting the concentration of product formed upon infusion of a given concentration of substrate and fitting the data to the Michaelis-Menten equation. The data was compared to that obtained using a conventional absorbance based assay (see below).^27

B1: adenosine deaminase (ADA) in solution (Bos taurus) (protein)
chain: MAQTPAFNKPKVELHVHLDGAIKPETILYYGRKRGIALPADTPEELQNIIGMDKPLSLPEFLAKFDYYMPAIAGCREAVKRIAYEFVEMKAKDGVVYVEVRYSPHLLANSKVEPIPWNQAEGDLTPDEVVSLVNQGLQEGERDFGVKVRSILCCMRHQPSWSSEVVELCKKYREQTVVAIDLAGDETIEGSSLFPGHVKAYAEAVKSGVHRTVHAGEVGSANVVKEAVDTLKTERLGHGYHTLEDATLYNRLRQENMHFEVCPWSSYLTGAWKPDTEHPVVRFKNDQVNYSLNTDDPLIFKSTLDTDYQMTKNEMGFTEEEFKRLNINAAKSSFLPEDEKKELLDLLYKAYGMPSPASAEQCL
notes: Adenosine deaminase (ADA, Type V, from bovine intestine, EC 3.5.4.4); purchased Sigma-Aldrich (Oakville, Ontario, Canada) Type V (catalogue number not given); host or cells: bovine intestine (tissue-derived)
- Km: 89 µM
